# Biological target: retromer endogenous in HeLa cells (detected through its subunit Vps35) (UniProt Q96QK1)
# Assay: cell-based or functional assay
# Sequence of retromer endogenous in HeLa cells (detected through its subunit Vps35) (O75436 whole entry): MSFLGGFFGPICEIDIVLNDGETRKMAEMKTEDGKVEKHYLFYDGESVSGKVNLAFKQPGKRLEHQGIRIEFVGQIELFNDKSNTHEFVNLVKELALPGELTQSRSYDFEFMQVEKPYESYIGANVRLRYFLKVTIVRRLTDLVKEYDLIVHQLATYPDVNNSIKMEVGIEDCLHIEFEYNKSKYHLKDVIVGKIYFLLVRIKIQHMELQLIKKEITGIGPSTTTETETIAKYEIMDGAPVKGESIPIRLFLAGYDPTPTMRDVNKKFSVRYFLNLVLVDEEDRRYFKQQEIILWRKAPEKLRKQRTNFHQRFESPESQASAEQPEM
substance,measurement,value
3R mutant HPV16 pseudovirus (L2 with three arginines in place of RKRRKR) (from UniProt P03101 1-505),Vps35/L1 PLA signal,75 % reduction
